Source: US5914109
pKd: −log10 of the molar value. Read-outs that look alike come from different tables or passages of the source.

Assays:
[1] = target: gp41 of HIVMN (virus) (HIV-1 strain MN)
[2] = target: 20-mer V3 peptide of HIVSF2 (HIV-1 isolate SF-2); assay: competition ELISA in solution at equilibrium (Friguet method)
[3] = target: recombinant gp120 protein of HIVSF2 (produced in CHO cells) (HIV-1 isolate SF-2) (UniProt P03378); assay: as above
[4] = target: hexapeptide YNKRKR (pin 3) (HIV-1 strain MN); assay: pin ELISA, hexapeptide on plastic pin
[5] = target: hexapeptide GPGRAF (pin 12) (HIV-1 strain MN); assay: pin ELISA, hexapeptide on plastic pin
[6] = target: hexapeptide RKRIHI (pin 6) (HIV-1 strain MN); assay: pin ELISA, hexapeptide on plastic pin
[7] = target: hexapeptide IGPGRA (pin 11) (HIV-1 strain MN); assay: pin ELISA, hexapeptide on plastic pin
[8] = target: hexapeptide TTKNII (pin 19) (HIV-1 strain MN); assay: pin ELISA, hexapeptide on plastic pin
[9] = target: hexapeptide HIGPGR (pin 10) (HIV-1 strain MN); assay: pin ELISA, hexapeptide on plastic pin
[10] = target: hexapeptide PGRAFY (pin 13) (HIV-1 strain MN); assay: pin ELISA, hexapeptide on plastic pin
[11] = target: hexapeptide FYTTKN (pin 17) (HIV-1 strain MN); assay: pin ELISA, hexapeptide on plastic pin
[12] = target: hexapeptide IHIGPG (pin 9) (HIV-1 strain MN); assay: pin ELISA, hexapeptide on plastic pin
[13] = target: hexapeptide TKNIIG (pin 20) (HIV-1 strain MN); assay: pin ELISA, hexapeptide on plastic pin
[14] = target: hexapeptide KRKRIH (pin 5) (HIV-1 strain MN); assay: pin ELISA, hexapeptide on plastic pin
[15] = target: hexapeptide YTTKNI (pin 18) (HIV-1 strain MN); assay: pin ELISA, hexapeptide on plastic pin
[16] = target: hexapeptide RIHIGP (pin 8) (HIV-1 strain MN); assay: pin ELISA, hexapeptide on plastic pin
[17] = target: hexapeptide RAFYTT (pin 15) (HIV-1 strain MN); assay: pin ELISA, hexapeptide on plastic pin
[18] = target: hexapeptide NKRKRI (pin 4) (HIV-1 strain MN); assay: pin ELISA, hexapeptide on plastic pin
[19] = target: hexapeptide KRIHIG (pin 7) (HIV-1 strain MN); assay: pin ELISA, hexapeptide on plastic pin
[20] = target: hexapeptide AFYTTK (pin 16) (HIV-1 strain MN); assay: pin ELISA, hexapeptide on plastic pin
[21] = target: hexapeptide GRAFYT (pin 14) (HIV-1 strain MN); assay: pin ELISA, hexapeptide on plastic pin
[22] = target: recombinant gp120 protein of HIVSF2 (produced in CHO cells) (HIV-1 isolate SF-2) (UniProt P03378); assay: Friguet method; reference: the 20-mer SF-2 peptide
[23] = target: gp120 of HIVMN (HIV-1 strain MN) (UniProt P05877)
[24] = target: 20-mer V3 peptide of HIVSF2 (HIV-1 isolate SF-2); assay: competition ELISA in solution at equilibrium (Friguet method); remark: listed apart in the source
[25] = target: 20-mer V3 peptide of HIVMN (American Bio-Technologies) (HIV-1 strain MN); assay: as above
[26] = target: 20-mer V3 peptide of HIVMN (American Bio-Technologies) (HIV-1 strain MN); assay: Friguet ELISA method, V3 MN peptide
[27] = target: gp120 of HIVMN (HIV-1 strain MN) (UniProt P05877); remark: listed apart in the source

Row | Substance | ELISA reactivity (absorbance units) (absorbance units) [4] | ELISA reactivity (absorbance units) (absorbance units) [5] | ELISA reactivity (absorbance units) (absorbance units) [6] | ELISA reactivity (absorbance units) (absorbance units) [7] | ELISA reactivity (absorbance units) (absorbance units) [8] | ELISA reactivity (absorbance units) (absorbance units) [9] | ELISA reactivity (absorbance units) (absorbance units) [10] | ELISA reactivity (absorbance units) (absorbance units) [11] | ELISA reactivity (absorbance units) (absorbance units) [12] | ELISA reactivity (absorbance units) (absorbance units) [13] | ELISA reactivity (absorbance units) (absorbance units) [14] | ELISA reactivity (absorbance units) (absorbance units) [15] | ELISA reactivity (absorbance units) (absorbance units) [16] | ELISA reactivity (absorbance units) (absorbance units) [17] | ELISA reactivity (absorbance units) (absorbance units) [18] | ELISA reactivity (absorbance units) (absorbance units) [19] | ELISA reactivity (absorbance units) (absorbance units) [20] | ELISA reactivity (absorbance units) (absorbance units) [21] | neutralizing antibody titer (50%), MT-2 plaque assay, 1 hr, no complement [23] [ng/mL] | neutralizing antibody titer (50%), MT-2 plaque assay, 18 hr with human complement [23] [ng/mL] | further results
1 | human mAb 50-69 (antibody) |  |  |  |  |  |  |  |  |  |  |  |  |  |  |  |  |  |  |  |  | neutralizing antibody titer (50%), MT-2 plaque assay, 1 hr, no complement (titer (1:x dilution)) [1]: 3; neutralizing antibody titer (50%), MT-2 plaque assay, 18 hr with human complement (titer (1:x dilution)) [1]: 3
2 | human mAb 257-D (antibody) | 0.256 | 0.208 | 1.78 | 0.163 | 0.219 | 0.156 | 0.456 | 0.273 | 0.13 | 0.164 | 0.259 | 0.259 | 0.276 | 0.333 | 0.288 | 1.59 | 0.233 | 0.272 | 3 | 0.3 | pKd [2]: 6.20; pKd [3]: 7.38; Difference (Kd of the SF-2 peptide against SF-2 recombinant) [22]: 15 fold; pKd [24]: 6.66; pKd [25]: 6.64; pKd [26]: 6.64; 50% neutralization, CEM-SS syncytium-forming assay, IgG concentration [27]: 0.01 µg/mL; 90% neutralization, CEM-SS syncytium-forming assay, IgG concentration [27]: 0.88 µg/mL
3 | human mAb 268-D (antibody) | 0.243 | 0.132 | 0.252 | 0.164 | 0.212 | 1.01 | 0.346 | 0.274 | 0.132 | 0.141 | 0.239 | 0.259 | 0.135 | 0.35 | 0.283 | 0.179 | 0.222 | 0.288 | 23 | 1.1 | pKd [24]: 5.64; pKd [25]: 6.23; pKd [26]: 6.23; 50% neutralization, CEM-SS syncytium-forming assay, IgG concentration [27]: 0.1 µg/mL; 90% neutralization, CEM-SS syncytium-forming assay, IgG concentration [27]: 1 µg/mL
